Article PMC12812394

Molecular target: Pi65-nLUC (rice (Oryza sativa ssp. japonica cv. GY129))
Test: split reporter (BiFC, NanoBiT); NanoLuc luciferase complementation (nLUC/cLUC fusions, 35S promoter) in co-infiltrated Nicotiana benthamiana leaves, 48-72 h at 22 °C; whole-leaf luminescence with furimazine, 1-min exposure

B1: OsAPx4-cLUC (enzyme)
chain: MAAPVVDAEYLRQVDRARRHLRALISSKGCAPIMLRLAWHDAGTYDVNTKTGGANGSIRYEEEYTHGSNAGLKIAIDLLEPIKAKSPKITYADLYQLAGVVAVEVTGGPTVEFIPGRRDSSVCPREGRLPDAKKGALHLRDIFYRMGLSDKDIVALSGGHTLGRAHPERSGFEGAWTQEPLKFDNSYFLELLKGESEGLLKLPTDKALLEDPSFRRYVDLYARDEDTFFKDYAESHKKLSELGFTPRSSGPASTKSDLSTGAVLAQSAVGVAVAAAVVIVSYLYEASKKSK
**Q.** For B1, which luminescence, fold over the negative controls is on record?
**A.** Its luminescence, fold over the negative controls is 12.3 fold.
